Test results: the nanobody polyreactivity screen of Harvey et al. (2022)

Assay: yeast display, Sf9 membrane polyspecificity reagent, FACS + sequencing; frameworks hold sequencing errors
In short: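 Nanobodies from a synthetic yeast display library (Saccharomyces cerevisiae BJ5465), induced 36–48 hours with galactose, were stained 1 hour at 4 °C with 10% biotinylated, detergent-solubilized Sf9 membrane reagent, enriched on streptavidin microbeads, then FACS-sorted. Anti-HA (expression) and streptavidin (reagent binding) fluorescence set low and high (top ~1%) gates. Polyreactivity labels come from the gate of origin. Genes were colony-PCR amplified, MiSeq 2 × 250 sequenced and filtered by CDR length.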

Sequence | polyreactivity (PSR sort gate)
QVQLVESGGGLVQAGGSLRLSCAASGYTFRSNTMGWYRQAPGKERELVASINQSGGRTYYADSVKGRFTISRDNAKNTVYFQMNSLKPEDTAVYYCATRGYNYYAHNYWGQGTQVTVSS | high polyreactivity
QVQLVESGGGLVQAGGSLRLSCAASGYTFRSYMGWYRQAPGKEREFVADISTSVTNTYYADSVKGRFTISRDNAKNTVYLQMNSLKPEDTAVYYCAAGVQSVYNGEPGIILEFDYWGQGTQVTVSS | low polyreactivity
QVQLVESGGGLVQAGGSLRLSCAASGYTFRTNVMGWYRQAPGKERELVATINWRGGSTYYADSVKGRFTISRDNAKNTVYLQMNSLKPEDTAVYYCAKTYRYYRTMDYWGQGTQVTVSS | low polyreactivity
QVQLVESGGGLVQAGGSLRLSCAASGYTFRWYVMGWYRPAPGKERELVAAISQSGGDTYYADSVKGRFTISRDNAKNTVYLQMNSLKPEDTAVYYCAVGRVGRFYYWGQGTQVTVSS | high polyreactivity
QVQLVESGGGLVQAGGSLRLSCAASGYTFRYNALGWYRQAPGKERELVAAISYSRGSTYYADSVKGRFTISRDYAKYTVYLLMNSLKPEDTAVYYCAAQYLFSGHDYWGQGTQVTVSS | low polyreactivity
QVQLVESGGGLVQAGGSLRLSCAASGYTFRYNTMGWYRQAPGKERELVADISSGVGNTYYADSVKGRFTISRDNAKNTVYLQMNSLKPEDTAVYYCNADYKSSYYWYLWYNYWGHGTQVTVSS | low polyreactivity
QVQLVESGGGLVQAGGSLRLSCAASGYTFRYYAMGSYRQAPGKERELVAAITWSGGSTYYADSVKGRFTISRDNAKNTVYLQMNSLKPEDTAVYFCATDSARVGNFPYPQFDYWGQGTQVTVSS | low polyreactivity
QVQLVESGGGLVQAGGSLRLSCAASGYTFRYYAMGWYRQAPGKERELVAAINWSGGSTYYADSVKGRFTISRDNAKNTVYLQNNSLKPEDTAVYYCAADPDGDLDIDYDYWGLGTQVTVSS | low polyreactivity
QVQLVESGGGLVQAGGSLRLSCAASGYTFRYYAMGWYRQAPGKERELVAVISSGGSTKYADSVKGRFTISRDNAKNTVYLQMNSLKPEDTAVYYCAARYRSLYNYWGQGTQVTVSS | high polyreactivity
QVQLVESGGGLVQAGGSLRLSCAASGYTFSAYAMGCYRQAPGKERELVASITRRRTNYAESVKGRFTISRDNAKNTVYLQMNSLKPEDTAVYYCAATNYVRQYATYDYWGQGTQVTVSS | high polyreactivity
QVQLVESGGGLVQAGGSLRLSCAASGYTFSFYAMGWYRQAPGKERELVATISWRGGSTYYADSVKGRFTISRDNAKNTVYLQMNSLKPEDTAVYYCNIVDKTGSKMDYWGQGTQVTVSS | high polyreactivity
QVQLVESGGGLVQAGGSLRLSCAASGYTFSRYAMGWYRQAPGKERELVAAISSRGGSTYYADSVKGRFTISRDNAKNTVYLQMNSLKPADTAVYYCAADYGVGYGIVGSYYWGQGTQVTVSS | high polyreactivity
QVQLVESGGGLVQAGGSLRLSCAASGYTFSSNVMGWYRQAPGKERELVAAISANGARTYYADSVKGRFTISRDNAKNTVYLQMNSLKPEDTAVYYCAADYRWAGRYYYWGQGTQVTVSS | high polyreactivity
QVQLVESGGGLVQAGGSLRLSCAASGYTFSSYAMGWYRQAPGKERELVAAITIGGGTNYADSVKGRFTISRDNAKNTVYLQMNSLKPEDTAVYYCNRDVALLEHPVPKKEFGYWGQGTQVTVSS | low polyreactivity
QVQLVESGGGLVQAGGSLRLSCAASGYTFSYYAMGWYRQAPGKERELVAAINYSGGRTYYADSVKGRFTISRDNAKHTVYLQMNSLKPEDSAVDYCAARGGFGMDYWGQGTQVTVSS | high polyreactivity
QVQLVESGGGLVQAGGSLRLSCAASGYTFTAYAMGWYRQAPGKERELVAAISKGGGSTYYADSVKGRFTISRDNAKNTVYLQMNSLKPEDTAVYYCAADTYQGVKYYYWGQGTQVTVSS | high polyreactivity
QVQLVESGGGLVQAGGSLRLSCAASGYTFTIYALGWYRQAPGKEMELVASISIDGSTYYADSVKGRFTISRDNAKNTVYLQMNSLKPEDTAVYYCAADYYYYTPGFDYWGQGTQVTVSS | low polyreactivity
QVQLVESGGGLVQAGGSLRLSCAASGYTFTRYAMGWYRQAPGKEREFVAAITSGGGSTYYADSVKGRFTISRDNAKNTVYLQMNSLKPEDTAVYYCAATRLVSYHYPDLDSQQGGYWGQGTQVTVSS | low polyreactivity
QVQLVESGGGLVQAGGSLRLSCAASGYTFVGYAMGWYRQAPGKERELVASISTGDSTYYADSVKGRFTISRDNAKNTVYLQMNSLKPEDTAVYYCAADSWYFRGMDYWGQGTQVTVSS | low polyreactivity
QVQLVESGGGLVQAGGSLRLSCAASGYTFVIYAMGSYRQAPGKERELVAAITTIGGRTYYADSVKGRFTISRDNAKNNVYLQMNSLKPEDTAVYYCAADIRSNRLYDGGYWGEGTQVTVSS | low polyreactivity
QVQLVESGGGLVQAGGSLRLSCAASGYTFVLNAMGWYRQAPGKEREFFAAITWSGGSTYYADSVKGRFTISRDNAKNTVYLQMNSLKPEDTAVYYCARSSRGKLDYWGQGTQVTVSS | low polyreactivity
QVQLVESGGGLVQAGGSLRLSCAASGYTFVTYAMGWYRQAPGKERELVAAISYTGGSTYYADSVKGRFTISRDNAKNTVYLQMNSLKPEDTAVYYCATLRNHYRYDYWGQGTQVTVSS | low polyreactivity

Sequence | polyreactivity (PSR sort gate)
QVQLVESGGGLVQAGGSLRLSCAASGYTFVYNAMGWYRQAPGKERELVAAITWGGAGTYYADSVKGRFTISRDNAKNTVYLQMNSLKPEDTAVYYCAAPSPRSSAYTYRGDYWGQGTQVTVSS | low polyreactivity
QVQLVESGGGLVQAGGSLRLSCAASGYTFYAMGWYRQAPGKERELVAAITYRGARTYYADSVKGRFTISRDNAKNTVYLQMNSLKPEDTAVYYCNADYWGQGTEVTVSS | low polyreactivity
QVQLVESGGGLVQAGGSLRLSCAASGYTFYENAMGWYRQAPGKERELVAAITSDGSTYYADSVKGRFTISRDNAKNTVYLQMNSLKPEDTAVYYCAVDEAPPELVYWFFTYYYGGQGTQVTVSS | low polyreactivity
QVQLVESGGGLVQAGGSLRLSCAASGYTFYVYAMGWYRQAPGKERELVAAIRSGGTTYYADSVKGRFTISRDNAKNTVYLQMNSLKPEDTAVYYCAAVSSDYPFEGNYWGQGTQVTVSS | low polyreactivity
QVQLVESGGGLVQAGGSLRLSCAASGYTFYVYTMGWYRQAPGKERELVAAISGSGTSTYYADSVKGRFTISRDNAKNTVYFQMNSLKPVDTAVYYCAAEDYSRDVYSYDYWGQGTQVTVSS | low polyreactivity
QVQLVESGGGLVQAGGSLRLSCAASGYTFYYAMGWYRQAPGKERELVAAISAGGGRTYYADSVKGRFTISRDNAKNTVYLQMNSLKPEDTAVYYCAGDYFYSQVAYVYWGQGTQLTVSS | high polyreactivity
QVQLVESGGGLVQAGGSLRLSCAASGYTIRYYAMGWYRQAPGKERDLVAAISSSGGNTYYADSVKGRFTISSDNAKNTVYLQMNSLKPEDTAVYYCAAAYHPYHRVTGHDGGYDYWGQGTQVTVSS | low polyreactivity
QVQLVESGGGLVQAGGSLRLSCAASGYTLDGYAMGWYRQAPGKERDFVAAITFRGGGTYYADSVKGRFTISRDNSKNTVYLQMISLKPEDSAVYYCNADTYDPFPWGSDYWGQGTQVNVSS | high polyreactivity
QVQLVESGGGLVQAGGSLRLSCAASGYTLGVNAMGWYRQAPGKERELVAAINYIDTRTYYADSVKGRFTISRDNAKNTVYLQMNSLKPEDTAVYYCAALPYVPWVKRYYYWGQGTQVTVSS | low polyreactivity
QVQLVESGGGLVQAGGSLRLSCAASGYTLRPNGMGWYRQAPGKERELVAAISSGGSTYYADSVKGRFTISRDNAKNTVYLQMNSLKPEDTAVYYCAAEYWYDYWGQGTQVTVSS | low polyreactivity
QVQLVESGGGLVQAGGSLRLSCAASGYTSYVYAMGWYRQAPGKERELVAAISLRTASTYYADSVKGRFTISRDNAKNTVYLQMNSLKPEDTAVYYCARGRETYRYCYRLNYWGQGTQVTVSS | high polyreactivity
QVQLVESGGGLVQAGGSLRLSCAASGYTVGTYDMGWYRQAPGKERELVAAISIGGSTNYADSVKGRFTMSRDNAKNTVYLQMNSLKPDATAVSYCASEVNVGTLLLSVIVEDGDYWGQGTQVTVSS | low polyreactivity
QVQLVESGGGLVQAGGSLRLSCAASGYTYGNYAMGWYRQAPGKERELVAAITSRGGRTYYADSVKGRFTISRDNAKNTVYLQMNSLKPEDTAVYYCAARGRYKDGYRMDYWGQGTQVTVSS | high polyreactivity
QVQLVESGGGLVQAGGSLRLSCAASGYTYRYYAMGWYRQAPGKERELVAAISASGGITYYADSVKGRFTISRDNAKNTVDLQMNCLNPEDTAVYYCATTGWGSWFDPYDYWGQGTQVTVSS | high polyreactivity
QVQLVESGGGLVQAGGSLRLSCAASRFIFGKYAMGWYRQAPGKEREFVAAITRSGGSTYYADSVKGRFTISRDNAKNTVYLQMNSLKPEDTAVYYCAAYSLKYYNGYDYWGQGTQVTVSS | high polyreactivity
QVQLVESGGGLVQAGGSLRLSCAASRFIFYYYALGWYRQAPGKERELVAAITWSGGSTYYADSVKGRFTISRDNAKNTVYLQMNSLKPEETAEYYCAVYSTEYKLLWGGISYDYWGQGTQVTVSS | low polyreactivity
QVQLVESGGGLVQAGGSLRLSCAASRFNFDRNVSGWYRQEPGKERELVAAITGSGGRTYYADSVKGRFKISRDNAKNTVYLQMNSLKPEDTAVYYCARAFGQRRYVYWGQGTQVTVSS | high polyreactivity
QVQLVESGGGLVQAGGSLRLSCAASRITFRFYAMGWSRQAPGKERELVAVISRGGGTTYYADSVKGRFTISRDNAKNTVYLQMNSLKPEDTAVYYCNAVIAWYRSDEYDYWGQGTQVTVSS | high polyreactivity
QVQLVESGGGLVQAGGSLRLSCAASRMGWYRQAPGKERELVARISGGVSTNYADSVRGRFTISRDNAKNTVYLQMNSVKPEDTAVYYCAADPLDTYDYWGQGTQATVSS | low polyreactivity
QVQLVESGGGLVQAGGSLRLSCAASRRIFYGYAMGWYRQAPGKERELVAAISLRTGSTFYADSVKGRFTISRDNAMNTVYLQMNSLKPEDTAVYYCAKEESYRPYIYVMDYWGQGTQVTVSS | low polyreactivity
QVQLVESGGGLVQAGGSLRLSCAASRRISHYYAMGWYRQAPGKERALVASIRISGGSTYYADSVKGRFTISRDYAKNTVFLQMNSLKPEDTAVYYCATLGYNWRRLYYWGQGTEVTVSS | high polyreactivity
